# Measured values: US20200282010A1, “IMMUNOGENIC COMPOSITIONS AND USES THEREFOR” (Epiaxis Therapeutics Pty Ltd, priority 2017, published 2020)
# How the values were obtained:
# [1] = tested on: CD8^+ T-cells of melanoma patient liquid biopsies; test: Immunofluorescence of EOMES, TBET and PD-1 (exhaustion signature) in patient CD8+ T-cells; format: cell-based, human; details: CR, SD and PD cohorts, vehicle or PMA/CI, FIG. 4
# Description: FIG. 4 is graphical representation showing expression of EOMES, TBET and PD-1 in CD8^+ T-cells of melanoma patient liquid biopsies in the presence and absence of PKCθi peptide inhibitor. A) CD8^+ T-cells were isolated from melanoma patient liquid biopsies (CR=complete response, SD=Stable Disease, PD=progression of disease) and were stimulated with PMA/CI and pre-clinically screened with either vehicle control or PKCθi peptide inhibitor. Samples were then fixed and immunofluorescence microscopy was performed on these cells with primary antibodies for EOMES, TBET, and PD-1. Representative images for each dataset are shown. Graph represents the TCFI for PD1, TNFI for EOMES and TNFI for TBET measured using ImageJ to select the nucleus minus background (n=>20 cells/sample). Graphs depicting the % inhibition or induction based on protein expression where also plotted for each protein target relative to untreated sample.
# Metastatic Melanoma Biopsies were pre-enriched using the RosetteSep™ method to isolate CTCs by employing the RosetteSep™ Human CD8 enrichment Kit (15063, StemCell Technologies) to isolate CD8+ cells and red blood cells, using density gradient centrifugation with SepMate™-50 (IVD) density gradient tubes (85450, StemCell Technologies) and Lymphoprep™ density gradient medium (07861, StemCell Technologies). […] Digital images were analysed using ImageJ software (ImageJ, NIH, Bethesda, Md., USA) to determine the either the Total Nuclear Fluorescent Intensity (TNFI), the Total Cytoplasmic Fluorescent Intensity (TCFI) or total Fluorescent Intensity (TFI). The plot-profile feature of ImageJ was used to plot the fluorescence signal intensity along a single line spanning the nucleus (n=5 lines per a nucleus, 5 individual cells) using the average fluorescent signal intensity for the indicated pair of antibodies was plotted for each point on the line with SE. […] For each plot-profile the PCC was determined. […]
# PKC-θ (T538p) = target: T1, PKC-θ (T538p) (Homo sapiens, UniProt Q04759); test: Nuclear localization of PKC-θ (Fn/c, immunofluorescence) in cells treated with peptide inhibitor; format: cell-based; details: MCF7 breast cancer cell line; FIG. 1D
# T1 construct: endogenous in cells; host or cells: MCF7
# Description: (§1) FIG. 1 is a graphical, schematic and photographic representation showing that PKC-θ can be targeted for therapeutic intervention. A) Depicts the strength of binding of recombinant purified His6-PKC-θ to increasing concentrations of different subunits and subunit combinations (α2, α2β1, and β1) of the importin α/β heterodimer nuclear transport receptor using an AlphaScreen® binding assay as described in Wagstaff et al. (2011. Journal of Biomolecular Screening 16 (2):192-200). B-C) Depicts protein structure of PKC-θ indicating binding locations for the PKC-θ peptide inhibitor, PKCθi (RKEIDPPFRPKVK), including the nuclear localization sequence (NLS) of PKC-θ. D) The specificity of PKCθi was examined on cells treated with this peptide inhibitor. Cells were screened with primary antibodies to PKC-θ (T538p), PKC-β2, PKC-β1, PKC-α, PKC-ε and PKC-γ. The nuclear to cytoplasmic fluorescence ratio (Fn/c) using the equation: Fn/c=(Fn−Fb)/(Fc−Fb), where Fn is nuclear fluorescence, Fc is cytoplasmic fluorescence, and Fb is background fluorescence was used to determine the impact on nuclear translocation/localization. […] EC^50 of inhibitors calculated using GraphPad PRISM software. F) The PKC-θ kinase activity was measured using the PKC kinase activity kit from ENZO life sciences and recombinant PKC-θ; C27 is an inhibitor of PKC-θ kinase activity, which is disclosed in Jimenez et al. (2013. […]
# PKC-α = target: T2, PKC-α (Homo sapiens, UniProt P17252); test: Nuclear localization of PKC-α (Fn/c, immunofluorescence), specificity; format: cell-based; details: MCF7 breast cancer cell line; FIG. 1D
# T2 construct: endogenous in cells; host or cells: MCF7
# Description: as §1
# PKC-γ = target: T3, PKC-γ (Homo sapiens, UniProt P05129); test: Nuclear localization of PKC-γ (Fn/c, immunofluorescence), specificity; format: cell-based; details: MCF7 breast cancer cell line; FIG. 1D
# T3 construct: endogenous in cells; host or cells: MCF7
# Description: as §1
# MCF7 cells = test: Cell proliferation (WST-1 assay); format: cell-based; details: FIG. 1E
# Description: as §1
# PKC-β2 = target: T4, PKC-β2 (Homo sapiens, UniProt P05771); test: Nuclear localization of PKC-β2 (Fn/c, immunofluorescence), specificity; format: cell-based; details: MCF7 breast cancer cell line; FIG. 1D
# T4 construct: endogenous in cells; host or cells: MCF7
# Description: as §1
# recombinant PKC-θ = recombinant PKC-θ (Homo sapiens, UniProt Q04759); test: PKC-θ kinase activity (PKC kinase activity kit, ENZO life sciences); format: biochemical; details: FIG. 1F
# Description: as §1
# recombinant PKC-θ, sequence (Q04759 whole entry): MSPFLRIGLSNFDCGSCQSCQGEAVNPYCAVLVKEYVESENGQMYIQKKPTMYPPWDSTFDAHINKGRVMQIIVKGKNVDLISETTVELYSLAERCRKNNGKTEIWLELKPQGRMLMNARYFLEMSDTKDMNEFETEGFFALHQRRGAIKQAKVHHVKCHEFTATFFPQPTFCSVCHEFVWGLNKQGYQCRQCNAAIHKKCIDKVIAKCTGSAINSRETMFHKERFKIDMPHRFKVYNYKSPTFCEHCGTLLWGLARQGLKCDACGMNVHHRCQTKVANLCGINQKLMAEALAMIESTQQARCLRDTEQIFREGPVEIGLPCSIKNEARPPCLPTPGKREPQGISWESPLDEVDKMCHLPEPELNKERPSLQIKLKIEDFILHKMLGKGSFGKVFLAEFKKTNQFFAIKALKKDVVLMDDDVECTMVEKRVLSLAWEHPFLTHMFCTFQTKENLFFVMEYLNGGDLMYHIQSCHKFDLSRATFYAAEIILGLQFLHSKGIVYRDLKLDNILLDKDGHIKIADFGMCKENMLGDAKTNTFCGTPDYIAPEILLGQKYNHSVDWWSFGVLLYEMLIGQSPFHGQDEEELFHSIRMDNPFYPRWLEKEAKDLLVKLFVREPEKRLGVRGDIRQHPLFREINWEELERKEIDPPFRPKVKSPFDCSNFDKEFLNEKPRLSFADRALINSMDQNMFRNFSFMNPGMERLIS
# T1 sequence (Q04759 whole entry): as above
# T4 sequence (P05771 1-673 isoform P05771-2): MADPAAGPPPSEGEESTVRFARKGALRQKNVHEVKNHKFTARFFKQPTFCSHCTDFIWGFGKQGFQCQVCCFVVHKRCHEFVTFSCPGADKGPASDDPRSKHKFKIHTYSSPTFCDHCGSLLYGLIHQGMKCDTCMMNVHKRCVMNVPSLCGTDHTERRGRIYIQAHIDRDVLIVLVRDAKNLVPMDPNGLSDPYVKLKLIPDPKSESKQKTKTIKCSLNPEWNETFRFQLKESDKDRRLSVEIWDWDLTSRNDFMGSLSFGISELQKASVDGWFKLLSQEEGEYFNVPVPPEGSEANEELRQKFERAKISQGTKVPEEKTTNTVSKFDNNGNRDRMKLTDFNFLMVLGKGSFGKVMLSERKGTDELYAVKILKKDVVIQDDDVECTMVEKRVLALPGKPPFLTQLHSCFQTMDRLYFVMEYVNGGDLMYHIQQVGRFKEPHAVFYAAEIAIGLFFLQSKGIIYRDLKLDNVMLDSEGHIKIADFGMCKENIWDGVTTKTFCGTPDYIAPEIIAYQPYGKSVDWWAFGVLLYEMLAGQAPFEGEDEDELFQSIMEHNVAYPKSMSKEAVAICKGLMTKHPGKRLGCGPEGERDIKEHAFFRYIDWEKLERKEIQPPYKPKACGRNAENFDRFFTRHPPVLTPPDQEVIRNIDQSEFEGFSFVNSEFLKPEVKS
sequence,measurement,setting,value
RKEIDPPFRPKVK [PKCθi],TBET expression,[1],enhancing
same,expression of EOMES,[1]; inhibitor 8 mm,inhibiting expression
same,expression of PD-1,[1]; inhibitor 8 mm,inhibiting expression
same,nuclear localization of PKC-θ,PKC-θ (T538p),markedly inhibit
same,nuclear localization of PKC-α,PKC-α,no effect
same,nuclear localization of PKC-γ,PKC-γ,no effect
same,proliferation of MCF7 cells,MCF7 cells,significantly inhibit
same,nuclear localization of PKC-β2,PKC-β2,no effect
same,PKC-θ catalytic activity,recombinant PKC-θ,without impacting
